# Assay results taken from patent US20230272071A1 (ARIZONA BOARD OF REGENTS ON BEHALF OF THE UNIVERSITY OF …, published 2023).
# T1: human CD19 on Ramos cells (B-cell lymphoma) (human, UniProt P15391 20-556)
# T1 construct: whole, on cells; also called hCD19
# T1 sequence (looked up): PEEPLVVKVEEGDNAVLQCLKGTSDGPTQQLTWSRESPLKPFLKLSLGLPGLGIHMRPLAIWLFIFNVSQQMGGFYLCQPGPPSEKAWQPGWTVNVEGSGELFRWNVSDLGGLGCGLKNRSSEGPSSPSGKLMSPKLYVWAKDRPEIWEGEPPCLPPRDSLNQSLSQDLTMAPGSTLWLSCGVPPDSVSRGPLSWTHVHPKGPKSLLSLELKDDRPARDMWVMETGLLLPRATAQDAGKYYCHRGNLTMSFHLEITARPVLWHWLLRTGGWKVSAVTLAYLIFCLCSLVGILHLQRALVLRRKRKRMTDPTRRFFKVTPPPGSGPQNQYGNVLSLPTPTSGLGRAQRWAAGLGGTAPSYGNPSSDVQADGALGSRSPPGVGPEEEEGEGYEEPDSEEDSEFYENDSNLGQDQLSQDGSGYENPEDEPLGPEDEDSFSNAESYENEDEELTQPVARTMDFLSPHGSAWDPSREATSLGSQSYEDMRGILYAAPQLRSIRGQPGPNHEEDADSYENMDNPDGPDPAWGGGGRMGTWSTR
# T2: recombinant huCD19 (BioLegend) (human, UniProt P15391 20-291, limits assumed)
# T2 construct: Bought reagent; also called rhuCD19
# T2 sequence (looked up): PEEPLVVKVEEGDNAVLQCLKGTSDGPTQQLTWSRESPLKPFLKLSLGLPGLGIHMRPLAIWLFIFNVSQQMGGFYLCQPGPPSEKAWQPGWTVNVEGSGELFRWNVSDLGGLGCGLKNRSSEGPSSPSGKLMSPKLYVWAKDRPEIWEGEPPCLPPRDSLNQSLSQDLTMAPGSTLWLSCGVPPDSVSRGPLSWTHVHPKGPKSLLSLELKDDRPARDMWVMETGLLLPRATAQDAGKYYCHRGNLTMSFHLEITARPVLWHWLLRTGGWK
# Key:
# [1] = biological target: T1, human CD19 on Ramos cells (B-cell …); experiment: flow cytometry of Ramos cells incubated with M12 supernatant, detected with PE anti-mouse I-A/I-E
# Description: Ramos cells were incubated with culture media (negative control) or supernatant from M12 cells expressing BMiMS, then stained with fluorophore conjugated antibodies against the indicated immune molecules and analyzed by flow cytometry.
# M12 cells were cultured to confluency (1-2×10⁶ cells/mL) in complete RPMI (5% FCS) and the supernatant was harvested for analysis as described above. Ramos cells were harvested, washed, and 1×10⁶ were incubated with media (negative control) or 0.250 mL of concentrated (50 mL down to 0.250 mL in Amicon Ultra 15 10 kDa (Millipore)) M12 cell culture supernatant at 4° C. for 1 hour. After washing, cells were stained with PE conjugated anti-mouse I-A/I-E (clone M5/14. 15.2, eBiosciences), PE conjugated anti-mCD80 (clone 16-10A1, BioLegend), anti-mCD86 (clone GL-1, BioLegend) or anti-mlCAM-1 (clone YN1/1.7.4, eBioscience) and analyzed by flow cytometry.
# [2] = biological target: T2, recombinant huCD19 (BioLegend); experiment: plate coated with 4 ug/ml recombinant huCD19, BMiMS supernatant, washed; retention read through IL-2 of 5c.c7 T cells
# Description: An experiment was designed to determine whether BMiMS can bind huCD19 and stimulate CD4+ T cells. See FIG. 9A. pMHCII-based BMiMS were made with the moth cytochrome c […] peptide (MCC) tethered with a flexible linker to I-E^k (MCC:I-E^k) which is recognized by the 5c.c7 TCR. For a pilot experiment, the wells of a 96-well plate were coated with 4 μg/ml recombinant huCD19 (BioLegend). The wells were washed and then incubated with concentrated supernatant from cells expressing pMHCII-BMiMS, CD80-BMiMS, or both. Naive 5c.c7+CD4+ T cells from 5c.c7 TCR transgenic mice (RagKO) were then incubated for 18 hr in the wells prior to harvesting of the supernatant for measurement of IL-2 by ELISA. No IL-2 was produced by cells cultured in wells with huCD19 only or the huCD19+CD80 BMiMS. IL-2 was produced by T cells cultured in wells with huCD19+pMHCII-BMiMS, and higher levels of IL-2 were produced by T cells cultured in wells coated with huCD19+pMHCII-BMiMS+CD80-BMiMS.
binder,measurement,setting,value
"mMHCII-Anti-hCD19 BMiMS (MCC:I-E^k fused to anti-hCD19 AltIg Fv of mAb B43, opened C-C' loop) (other, Heterodimer secreted by M12 cells, used as concentrated culture supernatant; also called pMHCII-BMiMS; pMHCII-based BMiMS) MHC II alpha: CIKEEHTIIQAEFYLLPDKRGEFMFDFDGDEIFHVDIEKSETIWRLEEFAKFASFEAQGALANIAVDKANLDVMKERSNNTPDANVAPEVTVLSRSPVNLGEPNILICFIDKFSPPVVNVTWLRNGRPVTEGVSETVFLPRDDHLFRKFHYLTFLPSTDDFYDCEVDHWGLEEPLRKHWEFEEKTLLPETKESRGGLEVLFQGPEFGGSTTAPSAQLEKELQALEKENAQLEWELQALEKELAQAAAGQPPKLLIYDASNLVSGIPPRFSGSGSGTDFTLNIHPVEKVDAATYHCQQSTEDPWTFGGGTKLEIKSPGSGGGGSGGGGSGGGGSSGELVLTQSPASLAVSLGQRATISCKASQSVDYDGDSYLNWYQQIGGGGSHHHHHH MHC II beta: CADPSGSANERADLIAYLKQATKEFRSGGGGSLVPRGSGGGGSVDRPWFLEYCKSECHFYNGTQRVRLLVRYFYNLEENLRFDSDVGEFRAVTELGRPDAENWNSQPEFLEQKRAEVDTVCRHNYEIFDNFLVPRRVEPTVTVYPTKTQPLEHHNLLVCSVSDFYPGNIEVRWFRNGKEEKTGIVSTGLVRNGDWTFQTLVMLETVPQSGEVYTCQVEHPSLTDPVTVEWKAQSTSAQNKSRGGLEVLFQGPEFGGSTTAPSAQLKKKLQALKKKNAQLKWKLQALKKKLAQAAAGQGLEWIGQIWPGDGDTNYNGKFKGKATLTADESSSTAYMQLSSLRSEDSAVYSCARRETTTVGRYYYAMDYWGQGTTVTSPGSGGGGSGGGGSGGGGSSGQVQLLESGAELVRPGSSVKISCKASGYAFSSYWMNWVKQRGGGGSHHHHHH",binding result,[1],binds
same,binding result,[2],binds
